Legend:
[1] = target: T1, TRC 1-2L.2307 meganuclease (synthetic construct); assay: cell_activity; CD3 knockout in primary human T cells; EC90 0.354 ug; details: tags: N-terminal SV40 NLS (mRNA delivered)
T1 chain: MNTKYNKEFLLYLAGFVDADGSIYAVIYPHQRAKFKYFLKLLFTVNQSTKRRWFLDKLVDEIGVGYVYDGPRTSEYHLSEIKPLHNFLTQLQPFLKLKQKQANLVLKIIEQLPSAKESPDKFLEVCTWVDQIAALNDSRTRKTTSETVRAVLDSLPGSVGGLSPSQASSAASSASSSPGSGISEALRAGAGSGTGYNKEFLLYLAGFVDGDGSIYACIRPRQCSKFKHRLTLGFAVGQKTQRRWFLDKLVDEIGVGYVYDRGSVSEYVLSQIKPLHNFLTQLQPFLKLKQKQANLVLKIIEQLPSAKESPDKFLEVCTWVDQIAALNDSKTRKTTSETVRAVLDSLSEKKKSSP
Description: (§1) In this study, an apheresis sample was drawn from a healthy, informed, and compensated donor, and the T cells were enriched using the CD3 positive selection kit II in accord with the manufacturer's instructions (Stem Cell Technologies). T cells were prepared for editing by stimulating with ImmunoCult anti-CD3/CD28/CD2 (Stem Cell Technologies) for three days in Xuri medium (GE Healthcare) supplemented with fetal bovine serum to 5% (Gemini Bio) and recombinant human IL-2 to 10 ng/ml (Gibco). Stimulated T cells were harvested and counted (Countess II, ThermoFisher) before electroporation was carried out on the Lonza 4-D NucleoFector using a titrated range of mRNA encoding TRC 1-2L.1592 or TRC 1-2L.2307. The concentrations used for this study were 2, 1, 0.5, 0.25, 0.125, and 0.0625 μg of RNA per 1×10⁶ stimulated T cells. Cells were subsequently cultured as above with IL-2 supplemented to 30 ng/ml.
(§2) Using cell counts and frequency of TRAC-edited CAR+ events, the number of CAR T cells produced using each TRC1-2 variant were calculated and plotted in FIG. 7. GraphPad Prism was used to calculate EC50 and EC90 values for TRC 1-2L.1592 (FIG. 7A), and TRC 1-2L.2307 (FIG. 7B).

[2] = target: T2, TRC 1-2L.1592 meganuclease (synthetic construct); assay: cell_activity; CD3 knockout in primary human T cells; EC90 0.545 ug
T2 chain: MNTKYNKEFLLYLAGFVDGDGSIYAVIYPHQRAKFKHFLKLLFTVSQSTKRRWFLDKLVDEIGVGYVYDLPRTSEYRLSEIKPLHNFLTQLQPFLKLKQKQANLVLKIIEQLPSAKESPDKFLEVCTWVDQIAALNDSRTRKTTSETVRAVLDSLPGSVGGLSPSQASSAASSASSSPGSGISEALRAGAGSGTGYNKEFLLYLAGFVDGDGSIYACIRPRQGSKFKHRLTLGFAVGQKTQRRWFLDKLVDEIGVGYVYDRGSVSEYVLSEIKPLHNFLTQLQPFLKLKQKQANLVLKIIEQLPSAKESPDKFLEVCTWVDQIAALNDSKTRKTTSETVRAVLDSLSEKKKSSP
Description: as §1, §2

B1: TRC 1-2 recognition sequence (dsDNA)
DNA 1: TGGCCTGGAGCAACAAATCTGA
DNA 2: TCAGATTTGTTGCTCCAGGCCA
B1 gave an EC50 [1] of 0.179 ug mRNA per 1e6 cells and an EC50 [2] of 0.372 ug mRNA per 1e6 cells.

— patent publication US20260117212, “OPTIMIZED ENGINEERED MEGANUCLEASES HAVING SPECIFICITY FOR THE HUMAN T CELL RECEPTOR ALPHA CONSTANT REGION GENE” (Precision BioSciences, Inc., published 2026)
